The values below come from patent US20120178796A1 (published 2012).

Where only a bound is given, the exact number is not on record here.

The chains are these.
B1: Myc-His-SIRT1 Δ2-9 (MH-SIRT1 Δ2-9) (other, not shown: small tags and cut ends)
chain: MADEAALALQPGGSPSAAGADREAASSPAGEPLRKRPRRDGPGLERSPGEPGGAAPEREVPAAARGCPGAAAAALWREAEAEAAAAGGEQEAQATAAAGEGDNGPGLQGPSREPPLADNLYDEDDDDEGEEEEEAAAAAIGYRDNLLFVLVAVTVIVGHARVQV
notes: Expressed in HCT116 p53+/+ cells from pcDNA3.1; Serine 47 found phosphorylated; also called exogenous SIRT1 Δ2-9
B2: SIRT1-FL (endogenous full length SIRT1) (enzyme, human, UniProt Q96EB6 1-747, looked up)
chain: MADEAALALQPGGSPSAAGADREAASSPAGEPLRKRPRRDGPGLERSPGEPGGAAPEREVPAAARGCPGAAAAALWREAEAEAAAAGGEQEAQATAAAGEGDNGPGLQGPSREPPLADNLYDEDDDDEGEEEEEAAAAAIGYRDNLLFGDEIITNGFHSCESDEEDRASHASSSDWTPRPRIGPYTFVQQHLMIGTDPRTILKDLLPETIPPPELDDMTLWQIVINILSEPPKRKKRKDINTIEDAVKLLQECKKIIVLTGAGVSVSCGIPDFRSRDGIYARLAVDFPDLPDPQAMFDIEYFRKDPRPFFKFAKEIYPGQFQPSLCHKFIALSDKEGKLLRNYTQNIDTLEQVAGIQRIIQCHGSFATASCLICKYKVDCEAVRGDIFNQVVPRCPRCPADEPLAIMKPEIVFFGENLPEQFHRAMKYDKDEVDLLIVIGSSLKVRPVALIPSSIPHEVPQILINREPLPHLHFDVELLGDCDVIINELCHRLGGEYAKLCCNPVKLSEITEKPPRTQKELAYLSELPPTPLHVSEDSSSPERTSPPDSSVIVTLLDQAAKSNDDLDVSESKGCMEEKPQEVQTSRNVESIAEQMENPDLKNVGSSTGEKNERTSVAGTVRKCWPNRVAKEQISRRLDGNQYLFLPPNRYIFHGAEVYSDSEDDVLSSSSCGSNSDSGTCQSPSLEEPMEDESEIEEFYNGLEDEPDVPERAGGAGFGTDGDDQEAINEAISVKQEVTDMNYPSNKS
B3: Myc-tagged SIRT1-ΔExon8 (SIRT1 Δ8 tagged at the C-terminus with c-Myc and 6x His) (enzyme)
chain: ADEAALALQPGGSPSAAGADREAASSPAGEPLRKRPRRDGPGLERSPGEPGGAAPEREVPAAARGCPGAAAAALWREAEAEAAAAGGEQEAQATAAAGEGDNGPGLQGPSREPPLADNLYDEDDDDEGEEEEEAAAAAIGYRDNLLFGDEIITNGFHSCESDEEDRASHASSSDWTPRPRIGPYTFVQQHLMIGTDPRTILKDLLPETIPPPELDDMTLWQIVINILSEPPKRKKRKDINTIEDAVKLLQECKKIIVLTGAGVSVSCGIPDFRSRDGIYARLAVDFPDLPDPQAMFDIEYFRKDPRPFFKFAKEIYPGQFQPSLCHKFIALSDKEGKLLRNYTQNIDTLEQVAGIQRIIQCHGSFATASCLICKYKVDCEAVRGDIFNQVVPRCPRCPADEPLAIMKPEIVFFGENLPEQFHRAMKYDKDEVDLLIVIGSSLKVRPVALIPSNQYLFLPPNRYIFHGAEVYSDSEDDVLSSSSCGSNSDSGTCQSPSLEEPMEDESEIEEFYNGLEDEPDVPERAGGAGFGTDGDDQEAINEAISVKQEVTDMNYPSNKS
notes: Transiently expressed in HCT116 cells, about 95 kDa; Found phosphorylated at S27 and S47 in lysates; also called SIRT1-delta exon 8; SIRT1 D8; not shown: C-terminal c-Myc and 6x His tags
B4: Flag-tagged AROS (other, UniProt Q86WX3 1-136, looked up, not shown: small tags and cut ends)
chain: MSAALLRRGLELLAASEAPRDPPGQAKPRGAPVKRPRKTKAIQAQKLRNSAKGKVPKSALDEYRKRECRDHLRVNLKFLTRTRSTVAESVSQQILRQNRGRKACDRPVAKTKKKKAEGTVFTEEDFQKFQQEYFGS
notes: its order in the chain is arbitrary

In test [1] the target is T1, p53 (endogenous, HCT116 p53+/+ cells) (human, UniProt P04637 1-393).
T1 construct: Endogenous protein in cell lysate, detected with anti-p53 DO-1; also called tumour suppressor protein p53; endogenous p53
T1 sequence (P04637 whole entry): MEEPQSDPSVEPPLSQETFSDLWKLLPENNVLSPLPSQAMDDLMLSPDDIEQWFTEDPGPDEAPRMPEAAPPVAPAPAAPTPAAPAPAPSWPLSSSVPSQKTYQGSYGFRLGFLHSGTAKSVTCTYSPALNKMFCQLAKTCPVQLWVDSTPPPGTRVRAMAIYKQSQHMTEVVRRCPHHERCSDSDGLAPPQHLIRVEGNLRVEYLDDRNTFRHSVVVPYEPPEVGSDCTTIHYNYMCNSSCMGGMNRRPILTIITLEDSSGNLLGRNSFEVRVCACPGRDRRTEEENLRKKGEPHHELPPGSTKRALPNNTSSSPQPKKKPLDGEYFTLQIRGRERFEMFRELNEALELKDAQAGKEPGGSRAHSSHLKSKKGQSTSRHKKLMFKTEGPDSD
Put plainly: immunoprecipitation of exogenous SIRT1 Δ2-9 with His antibody, blotted with p53 antibody.

Test [2] concerns the target T1, p53 (endogenous, HCT116 p53+/+ cells). Kind of test: cell-based or functional assay.
The target in test [3] is T2, DBC-1 (endogenous, HCT116 cells) (human, UniProt Q8N163 1-923).
T2 construct: Endogenous protein in cell lysate, probed with anti-DBC-1; also called endogenous DBC-1
T2 sequence (Q8N163 whole entry): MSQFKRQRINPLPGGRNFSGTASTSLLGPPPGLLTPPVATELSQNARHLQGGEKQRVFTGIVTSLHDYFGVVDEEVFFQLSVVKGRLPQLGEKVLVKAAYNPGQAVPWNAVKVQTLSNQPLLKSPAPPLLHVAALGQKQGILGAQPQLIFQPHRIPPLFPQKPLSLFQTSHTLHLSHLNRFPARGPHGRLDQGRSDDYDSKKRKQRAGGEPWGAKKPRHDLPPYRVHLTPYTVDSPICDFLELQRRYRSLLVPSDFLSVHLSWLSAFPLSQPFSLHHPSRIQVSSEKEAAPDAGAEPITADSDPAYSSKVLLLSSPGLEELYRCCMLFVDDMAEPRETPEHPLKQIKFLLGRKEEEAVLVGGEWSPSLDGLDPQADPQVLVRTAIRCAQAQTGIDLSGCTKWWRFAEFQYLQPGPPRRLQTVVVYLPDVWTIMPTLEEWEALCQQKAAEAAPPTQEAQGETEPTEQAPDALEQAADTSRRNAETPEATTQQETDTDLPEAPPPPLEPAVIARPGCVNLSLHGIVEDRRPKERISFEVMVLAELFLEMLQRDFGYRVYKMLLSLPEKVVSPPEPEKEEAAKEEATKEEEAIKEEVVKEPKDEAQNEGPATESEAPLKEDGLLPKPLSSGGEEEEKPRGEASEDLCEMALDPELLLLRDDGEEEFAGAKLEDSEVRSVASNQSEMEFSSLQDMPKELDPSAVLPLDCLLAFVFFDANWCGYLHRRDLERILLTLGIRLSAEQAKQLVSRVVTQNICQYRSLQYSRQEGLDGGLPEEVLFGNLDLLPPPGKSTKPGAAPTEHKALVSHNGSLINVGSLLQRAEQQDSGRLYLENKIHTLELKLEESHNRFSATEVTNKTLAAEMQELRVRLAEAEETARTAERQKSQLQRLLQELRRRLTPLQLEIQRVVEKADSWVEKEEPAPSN
Kind of test: immunoprecipitation of exogenous SIRT1-ΔExon8 from HCT116 cells, eluate probed with anti-DBC-1. As for the experimental part:
(§1) SIRT1-ΔExon8 was exogenously expressed in HCT116 cells and immuno-precipitated. […] SIRT1-ΔExon8 and Flag-tagged AROS were exogenously expressed in HCT116 cells, and the Flag epitope was immuno-precipitated. In the eluate, AROS was detected by probing with an anti-AROS antibody (Methods), while the interaction with SIRT1-ΔExon8 was probed with anti-c-Myc antibody (9E10, Santa Cruz). C. […] SIRT1-ΔExon8 was exogenously expressed in HCT116 cells and cells were harvested 24 h post-transfection. Cell lysates were immuno-precipitated with anti-c-Myc antibody (9E10, Santa Cruz). Western-blotting was performed with a C-terminal anti-SIRT1 antibody (residues 448-747, H300, Santa Cruz) which detects both endogenous SIRT1-FL and SIRT1-ΔExon8 (see: FIG. 2a). * indicates a non-specific band;

In test [4] the target is B2. Kind of test: immunoprecipitation with anti-c-Myc 9E10 from HCT116 lysates, Western blot with H300 anti-SIRT1. As for the experimental part: as §1
In test [5] the target is B3. Put plainly: pull-down / co-immunoprecipitation from HCT116 cells. As for the experimental part:
as §1

As for B1, the binding result in test [1] is listed as “binds”. As for B2, the “p53 acetylation levels following SIRT1 FL depletion (siRNA) under basal conditions in HCT116 cells, immunoblot” value in test [2] is greater than 50 fold. For B3, the binding result in test [3] and in test [4] was “no binding” each time. For the molecule B4, the binding result in test [5] is “binds”.
